Data taken from publication PMC5477518.

Biological target: LRP1, endogenous on primary cortical neurons (mouse (endogenous in primary cortical neurons)) (UniProt Q91ZX7)
Chain of UniProt Q91ZX7 (Q91ZX7 20-4545): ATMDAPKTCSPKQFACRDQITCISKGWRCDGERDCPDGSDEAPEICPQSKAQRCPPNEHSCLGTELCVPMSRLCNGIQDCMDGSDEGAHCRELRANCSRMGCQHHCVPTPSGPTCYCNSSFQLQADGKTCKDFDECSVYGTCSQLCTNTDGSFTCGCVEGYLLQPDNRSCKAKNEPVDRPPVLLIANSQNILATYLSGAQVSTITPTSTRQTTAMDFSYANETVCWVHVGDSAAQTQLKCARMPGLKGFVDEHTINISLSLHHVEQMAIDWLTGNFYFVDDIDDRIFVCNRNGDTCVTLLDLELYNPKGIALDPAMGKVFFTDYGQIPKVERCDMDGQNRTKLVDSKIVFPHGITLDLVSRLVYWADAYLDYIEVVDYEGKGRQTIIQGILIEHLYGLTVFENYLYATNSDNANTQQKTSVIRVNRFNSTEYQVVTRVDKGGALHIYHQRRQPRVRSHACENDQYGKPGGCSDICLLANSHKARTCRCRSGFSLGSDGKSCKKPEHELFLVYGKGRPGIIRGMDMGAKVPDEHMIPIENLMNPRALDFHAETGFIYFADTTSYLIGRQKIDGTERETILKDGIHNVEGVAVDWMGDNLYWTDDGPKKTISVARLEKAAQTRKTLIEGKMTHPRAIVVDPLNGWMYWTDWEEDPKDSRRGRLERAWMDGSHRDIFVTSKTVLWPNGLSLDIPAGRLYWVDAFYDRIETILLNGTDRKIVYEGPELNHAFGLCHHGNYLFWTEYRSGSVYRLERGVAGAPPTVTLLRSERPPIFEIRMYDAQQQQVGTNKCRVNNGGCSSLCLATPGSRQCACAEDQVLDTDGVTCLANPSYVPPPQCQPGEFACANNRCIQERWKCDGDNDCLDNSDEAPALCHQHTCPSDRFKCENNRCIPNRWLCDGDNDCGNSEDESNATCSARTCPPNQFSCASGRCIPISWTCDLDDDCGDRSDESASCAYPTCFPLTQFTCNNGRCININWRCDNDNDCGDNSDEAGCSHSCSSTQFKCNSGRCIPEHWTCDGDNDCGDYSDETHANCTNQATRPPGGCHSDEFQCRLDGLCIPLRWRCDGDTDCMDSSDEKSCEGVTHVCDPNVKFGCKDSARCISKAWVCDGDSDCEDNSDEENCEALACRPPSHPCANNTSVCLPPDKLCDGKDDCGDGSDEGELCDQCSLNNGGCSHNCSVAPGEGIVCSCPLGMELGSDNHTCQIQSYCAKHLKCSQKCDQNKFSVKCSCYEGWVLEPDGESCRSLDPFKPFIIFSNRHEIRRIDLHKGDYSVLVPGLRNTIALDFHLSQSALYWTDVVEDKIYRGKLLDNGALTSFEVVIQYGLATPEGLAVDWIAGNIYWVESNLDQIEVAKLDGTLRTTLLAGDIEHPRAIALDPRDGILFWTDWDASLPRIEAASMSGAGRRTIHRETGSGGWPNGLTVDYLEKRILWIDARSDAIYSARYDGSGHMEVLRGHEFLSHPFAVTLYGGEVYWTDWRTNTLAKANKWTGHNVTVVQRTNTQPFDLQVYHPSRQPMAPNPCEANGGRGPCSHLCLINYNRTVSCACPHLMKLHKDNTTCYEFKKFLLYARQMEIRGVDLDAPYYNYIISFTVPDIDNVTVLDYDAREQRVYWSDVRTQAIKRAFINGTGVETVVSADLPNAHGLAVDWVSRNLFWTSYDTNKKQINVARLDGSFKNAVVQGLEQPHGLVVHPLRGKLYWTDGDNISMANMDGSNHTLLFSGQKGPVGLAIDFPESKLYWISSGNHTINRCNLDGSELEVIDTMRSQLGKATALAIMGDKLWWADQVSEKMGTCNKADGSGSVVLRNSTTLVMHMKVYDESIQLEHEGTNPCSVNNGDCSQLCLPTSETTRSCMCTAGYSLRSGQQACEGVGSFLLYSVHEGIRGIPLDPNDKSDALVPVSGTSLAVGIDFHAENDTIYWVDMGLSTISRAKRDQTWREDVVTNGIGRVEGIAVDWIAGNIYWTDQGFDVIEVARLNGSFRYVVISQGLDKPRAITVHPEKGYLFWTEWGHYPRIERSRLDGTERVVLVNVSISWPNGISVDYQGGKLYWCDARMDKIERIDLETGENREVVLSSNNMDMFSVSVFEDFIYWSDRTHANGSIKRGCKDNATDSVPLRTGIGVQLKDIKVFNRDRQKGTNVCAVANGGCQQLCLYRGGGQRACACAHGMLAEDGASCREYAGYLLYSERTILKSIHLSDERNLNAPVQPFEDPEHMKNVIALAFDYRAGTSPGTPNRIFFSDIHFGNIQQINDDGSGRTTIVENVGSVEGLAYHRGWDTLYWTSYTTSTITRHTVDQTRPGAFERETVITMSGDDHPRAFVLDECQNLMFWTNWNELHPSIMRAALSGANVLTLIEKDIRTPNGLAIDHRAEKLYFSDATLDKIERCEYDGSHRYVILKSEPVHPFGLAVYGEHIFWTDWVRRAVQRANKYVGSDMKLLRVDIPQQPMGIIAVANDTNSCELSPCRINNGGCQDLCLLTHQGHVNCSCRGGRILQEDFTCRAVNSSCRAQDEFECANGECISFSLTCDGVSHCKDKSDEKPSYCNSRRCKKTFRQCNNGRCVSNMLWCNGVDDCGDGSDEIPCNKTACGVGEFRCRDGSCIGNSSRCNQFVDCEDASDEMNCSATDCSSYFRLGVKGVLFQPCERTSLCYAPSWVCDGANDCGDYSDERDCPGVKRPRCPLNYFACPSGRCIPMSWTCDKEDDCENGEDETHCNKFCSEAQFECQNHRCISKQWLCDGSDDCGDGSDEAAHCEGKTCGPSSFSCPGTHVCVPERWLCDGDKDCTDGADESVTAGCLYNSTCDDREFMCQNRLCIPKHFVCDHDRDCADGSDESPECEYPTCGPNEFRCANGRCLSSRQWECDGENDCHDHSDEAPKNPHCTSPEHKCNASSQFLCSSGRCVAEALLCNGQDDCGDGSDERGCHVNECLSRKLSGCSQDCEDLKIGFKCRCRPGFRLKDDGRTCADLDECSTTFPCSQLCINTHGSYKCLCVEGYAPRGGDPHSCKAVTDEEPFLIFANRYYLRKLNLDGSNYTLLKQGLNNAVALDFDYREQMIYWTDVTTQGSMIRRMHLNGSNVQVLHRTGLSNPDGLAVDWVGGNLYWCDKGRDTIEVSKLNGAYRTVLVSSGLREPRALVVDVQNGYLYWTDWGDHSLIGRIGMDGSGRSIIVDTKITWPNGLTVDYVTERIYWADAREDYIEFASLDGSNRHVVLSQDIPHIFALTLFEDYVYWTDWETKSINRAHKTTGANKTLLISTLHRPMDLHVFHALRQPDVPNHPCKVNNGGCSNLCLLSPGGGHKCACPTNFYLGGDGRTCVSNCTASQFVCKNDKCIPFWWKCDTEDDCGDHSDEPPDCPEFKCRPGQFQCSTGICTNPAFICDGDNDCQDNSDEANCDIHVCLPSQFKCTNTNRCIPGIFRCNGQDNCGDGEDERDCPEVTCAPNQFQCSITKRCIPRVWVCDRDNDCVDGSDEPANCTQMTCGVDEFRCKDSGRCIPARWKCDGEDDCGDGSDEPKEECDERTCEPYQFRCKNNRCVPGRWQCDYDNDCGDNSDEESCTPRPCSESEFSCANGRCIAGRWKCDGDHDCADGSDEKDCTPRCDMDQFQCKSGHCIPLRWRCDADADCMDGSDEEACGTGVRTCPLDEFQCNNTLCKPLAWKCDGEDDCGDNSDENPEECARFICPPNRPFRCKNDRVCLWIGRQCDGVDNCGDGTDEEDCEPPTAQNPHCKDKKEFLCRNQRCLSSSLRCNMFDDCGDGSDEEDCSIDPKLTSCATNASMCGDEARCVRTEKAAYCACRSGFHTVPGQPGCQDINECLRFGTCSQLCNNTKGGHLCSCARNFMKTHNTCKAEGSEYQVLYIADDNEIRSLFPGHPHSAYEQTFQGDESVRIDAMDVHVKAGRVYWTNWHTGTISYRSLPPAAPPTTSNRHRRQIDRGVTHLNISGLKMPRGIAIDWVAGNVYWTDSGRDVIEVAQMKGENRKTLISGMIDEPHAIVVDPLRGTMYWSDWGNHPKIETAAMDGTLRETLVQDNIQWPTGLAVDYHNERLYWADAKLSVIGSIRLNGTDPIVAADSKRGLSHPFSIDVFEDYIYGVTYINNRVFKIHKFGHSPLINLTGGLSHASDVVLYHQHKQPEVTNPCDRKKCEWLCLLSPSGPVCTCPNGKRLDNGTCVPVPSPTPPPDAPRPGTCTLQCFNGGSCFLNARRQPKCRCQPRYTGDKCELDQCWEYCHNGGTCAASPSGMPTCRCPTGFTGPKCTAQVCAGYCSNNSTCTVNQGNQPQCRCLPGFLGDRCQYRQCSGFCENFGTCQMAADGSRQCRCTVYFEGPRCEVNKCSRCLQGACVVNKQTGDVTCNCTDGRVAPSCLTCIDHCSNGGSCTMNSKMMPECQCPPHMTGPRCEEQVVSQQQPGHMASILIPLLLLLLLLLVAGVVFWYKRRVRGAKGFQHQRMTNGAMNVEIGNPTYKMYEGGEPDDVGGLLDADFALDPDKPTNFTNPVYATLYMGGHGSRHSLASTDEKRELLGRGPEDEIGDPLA

uptake of hPSAP (1 μg/ml) by primary cortical neurons in the presence of GST-RAP (50 μg/ml), immunoblot: 75%
B1: Recombinant his-human PSAP (natural protein)
chain: GPVLGLKECTRGSAVWCQNVKTASDCGAVKHCLQTVWNKPTVKSLPCDICKDVVTAAGDMLKDNATEEEILVYLEKTCDWLPKPNMSASCKEIVDSYLPVILDIIKGEMSRPGEVCSALNLCESLQKHLAELNHQKQLESNKIPELDMTEVVAPFMANIPLLLYPQDGPRSKPQPKDNGDVCQDCIQMVTDIQTAVRTNSTFVQALVEHVKEECDRLGPGMADICKNYISQYSEIAIQMMMHMQPKEICALVGFCDEVKEMPMQTLVPAKVASKNVIPALELVEPIKKHEVPAKSDVYCEVCEFLVKEVTKLIDNNKTEKEILDAFDKMCSKLPKSLSEECQEVVDTYGSSILSILLEEVSPELVCSMLHLCSGTRLPALTVHVTQPKDGGFCEVCKKLVGYLDRNLEKNSTKQEILAALEKGCSFLPDPYQKQCDQFVAEYEPVLIEILVEVMDPSFVCLKIGACPSAHKPLLGTEKCIWGPSYWCQNTETAAQCNAVEHCKRHVWN
